The RNAGym collection of RNA variant scans (doi:10.1021/acssynbio.7b00057)

B1: Pistol ribozyme (parent)
chain: GGGUCGUUGUUCCAUAAUCGCGUGGAUAUGGCACGCAAGUUUCUACCGGGCACCGUAAAUGUCCGACUGGAGCCGUUCGGGCGGCUAUAAACAGACCUCAGGCCCGAAGCGUGGCGGCACCUGCCGCCGGUGGUAAAAAAGAUCGGAAGAGCACACGUCU

Variants of: B1
Assay: aptazyme ON/OFF ratio, guanine; higher = stronger switching; co-transcriptional cleavage with and without guanine

Variant	aptazyme ON/OFF ratio
GGGUCGCGCGCUUAUAAUCGCGUGGAUAUGGCACGCAAGUUUCUACCGGGCACCGUAAAUGUCCGACUGGAGCCGUUCGGGCGGCUAUAAACAGACCUCAGGCCCGAAGCGUGGCGGCACCUGCCGCCGGUGGUAAAAAAGAUCGGAAGAGCACACGUCU [U7C U8G G9C U10G U11C C12U C13U]	1.21
GGGUCGCGCGCUAAUAAUCGCGUGGAUAUGGCACGCAAGUUUCUACCGGGCACCGUAAAUGUCCGACUGGAGCCGUUCGGGCGGCUAUAAACAGACCUCAGGCCCGAAGCGUGGCGGCACCUGCCGCCGGUGGUAAAAAAGAUCGGAAGAGCACACGUCU [U7C U8G G9C U10G U11C C12U C13A]	1.26
GGGUCGCGCGCUGAUAAUCGCGUGGAUAUGGCACGCAAGUUUCUACCGGGCACCGUAAAUGUCCGACUGGAGCCGUUCGGGCGGCUAUAAACAGACCUCAGGCCCGAAGCGUGGCGGCACCUGCCGCCGGUGGUAAAAAAGAUCGGAAGAGCACACGUCU [U7C U8G G9C U10G U11C C12U C13G]	1.25
GGGUCGCGCGGUGAUAAUCGCGUGGAUAUGGCACGCAAGUUUCUACCGGGCACCGUAAAUGUCCGACUGGAGCCGUUCGGGCGGCUAUAAACAGACCUCAGGCCCGAAGCGUGGCGGCACCUGCCGCCGGUGGUAAAAAAGAUCGGAAGAGCACACGUCU [U7C U8G G9C U10G U11G C12U C13G]	1.09
GGGUCGCGCGGUUAUAAUCGCGUGGAUAUGGCACGCAAGUUUCUACCGGGCACCGUAAAUGUCCGACUGGAGCCGUUCGGGCGGCUAUAAACAGACCUCAGGCCCGAAGCGUGGCGGCACCUGCCGCCGGUGGUAAAAAAGAUCGGAAGAGCACACGUCU [U7C U8G G9C U10G U11G C12U C13U]	1.11
GGGUCGCGCGGUAAUAAUCGCGUGGAUAUGGCACGCAAGUUUCUACCGGGCACCGUAAAUGUCCGACUGGAGCCGUUCGGGCGGCUAUAAACAGACCUCAGGCCCGAAGCGUGGCGGCACCUGCCGCCGGUGGUAAAAAAGAUCGGAAGAGCACACGUCU [U7C U8G G9C U10G U11G C12U C13A]	1.06
GGGUCGCGCGCCCAUAAUCGCGUGGAUAUGGCACGCAAGUUUCUACCGGGCACCGUAAAUGUCCGACUGGAGCCGUUCGGGCGGCUAUAAACAGACCUCAGGCCCGAAGCGUGGCGGCACCUGCCGCCGGUGGUAAAAAAGAUCGGAAGAGCACACGUCU [U7C U8G G9C U10G U11C]	1.04
GGGUCGCGCGGCCAUAAUCGCGUGGAUAUGGCACGCAAGUUUCUACCGGGCACCGUAAAUGUCCGACUGGAGCCGUUCGGGCGGCUAUAAACAGACCUCAGGCCCGAAGCGUGGCGGCACCUGCCGCCGGUGGUAAAAAAGAUCGGAAGAGCACACGUCU [U7C U8G G9C U10G U11G]	1.23
GGGUCGCGCGGCGAUAAUCGCGUGGAUAUGGCACGCAAGUUUCUACCGGGCACCGUAAAUGUCCGACUGGAGCCGUUCGGGCGGCUAUAAACAGACCUCAGGCCCGAAGCGUGGCGGCACCUGCCGCCGGUGGUAAAAAAGAUCGGAAGAGCACACGUCU [U7C U8G G9C U10G U11G C13G]	1.1
GGGUCGCGCGGCAAUAAUCGCGUGGAUAUGGCACGCAAGUUUCUACCGGGCACCGUAAAUGUCCGACUGGAGCCGUUCGGGCGGCUAUAAACAGACCUCAGGCCCGAAGCGUGGCGGCACCUGCCGCCGGUGGUAAAAAAGAUCGGAAGAGCACACGUCU [U7C U8G G9C U10G U11G C13A]	1.13
GGGUCGCGCGGCUAUAAUCGCGUGGAUAUGGCACGCAAGUUUCUACCGGGCACCGUAAAUGUCCGACUGGAGCCGUUCGGGCGGCUAUAAACAGACCUCAGGCCCGAAGCGUGGCGGCACCUGCCGCCGGUGGUAAAAAAGAUCGGAAGAGCACACGUCU [U7C U8G G9C U10G U11G C13U]	1.11
GGGUCGCGCGGACAUAAUCGCGUGGAUAUGGCACGCAAGUUUCUACCGGGCACCGUAAAUGUCCGACUGGAGCCGUUCGGGCGGCUAUAAACAGACCUCAGGCCCGAAGCGUGGCGGCACCUGCCGCCGGUGGUAAAAAAGAUCGGAAGAGCACACGUCU [U7C U8G G9C U10G U11G C12A]	1.18
GGGUCGCGCGGGCAUAAUCGCGUGGAUAUGGCACGCAAGUUUCUACCGGGCACCGUAAAUGUCCGACUGGAGCCGUUCGGGCGGCUAUAAACAGACCUCAGGCCCGAAGCGUGGCGGCACCUGCCGCCGGUGGUAAAAAAGAUCGGAAGAGCACACGUCU [U7C U8G G9C U10G U11G C12G]	1.13
GGGUCGCGCGGUCAUAAUCGCGUGGAUAUGGCACGCAAGUUUCUACCGGGCACCGUAAAUGUCCGACUGGAGCCGUUCGGGCGGCUAUAAACAGACCUCAGGCCCGAAGCGUGGCGGCACCUGCCGCCGGUGGUAAAAAAGAUCGGAAGAGCACACGUCU [U7C U8G G9C U10G U11G C12U]	1.29
GGGUCGCGCGGAAAUAAUCGCGUGGAUAUGGCACGCAAGUUUCUACCGGGCACCGUAAAUGUCCGACUGGAGCCGUUCGGGCGGCUAUAAACAGACCUCAGGCCCGAAGCGUGGCGGCACCUGCCGCCGGUGGUAAAAAAGAUCGGAAGAGCACACGUCU [U7C U8G G9C U10G U11G C12A C13A]	1.15
GGGUCGCGCGGAUAUAAUCGCGUGGAUAUGGCACGCAAGUUUCUACCGGGCACCGUAAAUGUCCGACUGGAGCCGUUCGGGCGGCUAUAAACAGACCUCAGGCCCGAAGCGUGGCGGCACCUGCCGCCGGUGGUAAAAAAGAUCGGAAGAGCACACGUCU [U7C U8G G9C U10G U11G C12A C13U]	1.14
GGGUCGCGCGGAGAUAAUCGCGUGGAUAUGGCACGCAAGUUUCUACCGGGCACCGUAAAUGUCCGACUGGAGCCGUUCGGGCGGCUAUAAACAGACCUCAGGCCCGAAGCGUGGCGGCACCUGCCGCCGGUGGUAAAAAAGAUCGGAAGAGCACACGUCU [U7C U8G G9C U10G U11G C12A C13G]	1.11
GGGUCGCGCGGGAAUAAUCGCGUGGAUAUGGCACGCAAGUUUCUACCGGGCACCGUAAAUGUCCGACUGGAGCCGUUCGGGCGGCUAUAAACAGACCUCAGGCCCGAAGCGUGGCGGCACCUGCCGCCGGUGGUAAAAAAGAUCGGAAGAGCACACGUCU [U7C U8G G9C U10G U11G C12G C13A]	1.1

Variant	aptazyme ON/OFF ratio
GGGUCGCGCGGGGAUAAUCGCGUGGAUAUGGCACGCAAGUUUCUACCGGGCACCGUAAAUGUCCGACUGGAGCCGUUCGGGCGGCUAUAAACAGACCUCAGGCCCGAAGCGUGGCGGCACCUGCCGCCGGUGGUAAAAAAGAUCGGAAGAGCACACGUCU [U7C U8G G9C U10G U11G C12G C13G]	1.09
GGGUCGCGCGGGUAUAAUCGCGUGGAUAUGGCACGCAAGUUUCUACCGGGCACCGUAAAUGUCCGACUGGAGCCGUUCGGGCGGCUAUAAACAGACCUCAGGCCCGAAGCGUGGCGGCACCUGCCGCCGGUGGUAAAAAAGAUCGGAAGAGCACACGUCU [U7C U8G G9C U10G U11G C12G C13U]	1.15
GGGUCGCGCGAUUAUAAUCGCGUGGAUAUGGCACGCAAGUUUCUACCGGGCACCGUAAAUGUCCGACUGGAGCCGUUCGGGCGGCUAUAAACAGACCUCAGGCCCGAAGCGUGGCGGCACCUGCCGCCGGUGGUAAAAAAGAUCGGAAGAGCACACGUCU [U7C U8G G9C U10G U11A C12U C13U]	1.27
GGGUCGCGCGACGAUAAUCGCGUGGAUAUGGCACGCAAGUUUCUACCGGGCACCGUAAAUGUCCGACUGGAGCCGUUCGGGCGGCUAUAAACAGACCUCAGGCCCGAAGCGUGGCGGCACCUGCCGCCGGUGGUAAAAAAGAUCGGAAGAGCACACGUCU [U7C U8G G9C U10G U11A C13G]	1.19
GGGUCGCGCGACUAUAAUCGCGUGGAUAUGGCACGCAAGUUUCUACCGGGCACCGUAAAUGUCCGACUGGAGCCGUUCGGGCGGCUAUAAACAGACCUCAGGCCCGAAGCGUGGCGGCACCUGCCGCCGGUGGUAAAAAAGAUCGGAAGAGCACACGUCU [U7C U8G G9C U10G U11A C13U]	1.16
GGGUCGCGCGACAAUAAUCGCGUGGAUAUGGCACGCAAGUUUCUACCGGGCACCGUAAAUGUCCGACUGGAGCCGUUCGGGCGGCUAUAAACAGACCUCAGGCCCGAAGCGUGGCGGCACCUGCCGCCGGUGGUAAAAAAGAUCGGAAGAGCACACGUCU [U7C U8G G9C U10G U11A C13A]	1.3
GGGUCGCGCGCCAAUAAUCGCGUGGAUAUGGCACGCAAGUUUCUACCGGGCACCGUAAAUGUCCGACUGGAGCCGUUCGGGCGGCUAUAAACAGACCUCAGGCCCGAAGCGUGGCGGCACCUGCCGCCGGUGGUAAAAAAGAUCGGAAGAGCACACGUCU [U7C U8G G9C U10G U11C C13A]	1.25
GGGUCGCGCGCCGAUAAUCGCGUGGAUAUGGCACGCAAGUUUCUACCGGGCACCGUAAAUGUCCGACUGGAGCCGUUCGGGCGGCUAUAAACAGACCUCAGGCCCGAAGCGUGGCGGCACCUGCCGCCGGUGGUAAAAAAGAUCGGAAGAGCACACGUCU [U7C U8G G9C U10G U11C C13G]	1.05
GGGUCGCGCGCCUAUAAUCGCGUGGAUAUGGCACGCAAGUUUCUACCGGGCACCGUAAAUGUCCGACUGGAGCCGUUCGGGCGGCUAUAAACAGACCUCAGGCCCGAAGCGUGGCGGCACCUGCCGCCGGUGGUAAAAAAGAUCGGAAGAGCACACGUCU [U7C U8G G9C U10G U11C C13U]	1.07
GGGUCGCGCGCAGAUAAUCGCGUGGAUAUGGCACGCAAGUUUCUACCGGGCACCGUAAAUGUCCGACUGGAGCCGUUCGGGCGGCUAUAAACAGACCUCAGGCCCGAAGCGUGGCGGCACCUGCCGCCGGUGGUAAAAAAGAUCGGAAGAGCACACGUCU [U7C U8G G9C U10G U11C C12A C13G]	1.16
GGGUCGCGCGCAAAUAAUCGCGUGGAUAUGGCACGCAAGUUUCUACCGGGCACCGUAAAUGUCCGACUGGAGCCGUUCGGGCGGCUAUAAACAGACCUCAGGCCCGAAGCGUGGCGGCACCUGCCGCCGGUGGUAAAAAAGAUCGGAAGAGCACACGUCU [U7C U8G G9C U10G U11C C12A C13A]	1.31
GGGUCGCGCGCAUAUAAUCGCGUGGAUAUGGCACGCAAGUUUCUACCGGGCACCGUAAAUGUCCGACUGGAGCCGUUCGGGCGGCUAUAAACAGACCUCAGGCCCGAAGCGUGGCGGCACCUGCCGCCGGUGGUAAAAAAGAUCGGAAGAGCACACGUCU [U7C U8G G9C U10G U11C C12A C13U]	1.35
GGGUCGCGCGCGUAUAAUCGCGUGGAUAUGGCACGCAAGUUUCUACCGGGCACCGUAAAUGUCCGACUGGAGCCGUUCGGGCGGCUAUAAACAGACCUCAGGCCCGAAGCGUGGCGGCACCUGCCGCCGGUGGUAAAAAAGAUCGGAAGAGCACACGUCU [U7C U8G G9C U10G U11C C12G C13U]	1.24
GGGUCGCGCGCGGAUAAUCGCGUGGAUAUGGCACGCAAGUUUCUACCGGGCACCGUAAAUGUCCGACUGGAGCCGUUCGGGCGGCUAUAAACAGACCUCAGGCCCGAAGCGUGGCGGCACCUGCCGCCGGUGGUAAAAAAGAUCGGAAGAGCACACGUCU [U7C U8G G9C U10G U11C C12G C13G]	1.22
GGGUCGCGCGCGAAUAAUCGCGUGGAUAUGGCACGCAAGUUUCUACCGGGCACCGUAAAUGUCCGACUGGAGCCGUUCGGGCGGCUAUAAACAGACCUCAGGCCCGAAGCGUGGCGGCACCUGCCGCCGGUGGUAAAAAAGAUCGGAAGAGCACACGUCU [U7C U8G G9C U10G U11C C12G C13A]	1.31
GGGUCGCGCGCACAUAAUCGCGUGGAUAUGGCACGCAAGUUUCUACCGGGCACCGUAAAUGUCCGACUGGAGCCGUUCGGGCGGCUAUAAACAGACCUCAGGCCCGAAGCGUGGCGGCACCUGCCGCCGGUGGUAAAAAAGAUCGGAAGAGCACACGUCU [U7C U8G G9C U10G U11C C12A]	1.24
GGGUCGCGCGCUCAUAAUCGCGUGGAUAUGGCACGCAAGUUUCUACCGGGCACCGUAAAUGUCCGACUGGAGCCGUUCGGGCGGCUAUAAACAGACCUCAGGCCCGAAGCGUGGCGGCACCUGCCGCCGGUGGUAAAAAAGAUCGGAAGAGCACACGUCU [U7C U8G G9C U10G U11C C12U]	1.07
GGGUCGCGCGCGCAUAAUCGCGUGGAUAUGGCACGCAAGUUUCUACCGGGCACCGUAAAUGUCCGACUGGAGCCGUUCGGGCGGCUAUAAACAGACCUCAGGCCCGAAGCGUGGCGGCACCUGCCGCCGGUGGUAAAAAAGAUCGGAAGAGCACACGUCU [U7C U8G G9C U10G U11C C12G]	1.25
